From FireProtDB (doi:10.1016/j.jmb.2007.09.088)

Conditions: Niallia circulans; pH 5; 25 °C; Urea; Fluorescence; Sodium acetate 50mM; transition: 2; reversible: yes; structure 1K85

Chitinase A1 V624A, P20533, sequence (P20533 whole entry V624A): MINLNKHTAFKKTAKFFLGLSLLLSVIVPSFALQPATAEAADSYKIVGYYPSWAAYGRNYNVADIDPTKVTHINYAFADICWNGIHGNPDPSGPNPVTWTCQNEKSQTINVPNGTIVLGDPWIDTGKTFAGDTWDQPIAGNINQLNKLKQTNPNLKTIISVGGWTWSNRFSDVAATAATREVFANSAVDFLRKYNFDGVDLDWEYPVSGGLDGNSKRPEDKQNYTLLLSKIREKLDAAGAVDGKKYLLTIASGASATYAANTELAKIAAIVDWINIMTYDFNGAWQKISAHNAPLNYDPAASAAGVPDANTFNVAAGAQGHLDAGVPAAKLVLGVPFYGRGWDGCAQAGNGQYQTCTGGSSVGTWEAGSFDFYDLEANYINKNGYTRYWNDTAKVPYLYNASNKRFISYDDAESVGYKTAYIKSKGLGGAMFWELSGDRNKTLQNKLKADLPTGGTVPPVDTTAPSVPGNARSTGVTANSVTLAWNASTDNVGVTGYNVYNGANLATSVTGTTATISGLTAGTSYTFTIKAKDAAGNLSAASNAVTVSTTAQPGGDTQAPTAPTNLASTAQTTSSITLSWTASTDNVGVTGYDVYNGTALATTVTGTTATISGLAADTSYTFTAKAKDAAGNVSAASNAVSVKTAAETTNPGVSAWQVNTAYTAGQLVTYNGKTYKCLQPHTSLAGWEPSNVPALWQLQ
Chitinase A1 V642A, P20533, sequence (P20533 whole entry V642A): as the sequence (P20533 whole entry V624A) above, with A624V, V642A counted along it
Chitinase A1 V589A, P20533, sequence (P20533 whole entry V589A): as the sequence (P20533 whole entry V624A) above, with V589A, A624V counted along it
Chitinase A1 V604A, P20533, sequence (P20533 whole entry V604A): as the sequence (P20533 whole entry V624A) above, with V604A, A624V counted along it
Chitinase A1 Y620L, P20533, sequence (P20533 whole entry Y620L): as the sequence (P20533 whole entry V624A) above, with Y620L, A624V counted along it
Chitinase A1 Y592F, P20533, sequence (P20533 whole entry Y592F): as the sequence (P20533 whole entry V624A) above, with Y592F, A624V counted along it
Chitinase A1 N596A, P20533, sequence (P20533 whole entry N596A): as the sequence (P20533 whole entry V624A) above, with N596A, A624V counted along it
Chitinase A1 L566A, P20533, sequence (P20533 whole entry L566A): as the sequence (P20533 whole entry V624A) above, with L566A, A624V counted along it
Chitinase A1 S637A, P20533, sequence (P20533 whole entry S637A): as the sequence (P20533 whole entry V624A) above, with A624V, S637A counted along it
Chitinase A1 T602A, P20533, sequence (P20533 whole entry T602A): as the sequence (P20533 whole entry V624A) above, with T602A, A624V counted along it
Chitinase A1 I611A, P20533, sequence (P20533 whole entry I611A): as the sequence (P20533 whole entry V624A) above, with I611A, A624V counted along it
Chitinase A1 L614A, P20533, sequence (P20533 whole entry L614A): as the sequence (P20533 whole entry V624A) above, with L614A, A624V counted along it
Chitinase A1 A609G, P20533, sequence (P20533 whole entry A609G): as the sequence (P20533 whole entry V624A) above, with A609G, A624V counted along it
Chitinase A1 I576A, P20533, sequence (P20533 whole entry I576A): as the sequence (P20533 whole entry V624A) above, with I576A, A624V counted along it
Chitinase A1 A626G, P20533, sequence (P20533 whole entry A626G): as the sequence (P20533 whole entry V624A) above, with A624V, A626G counted along it
Chitinase A1 Y620F, P20533, sequence (P20533 whole entry Y620F): as the sequence (P20533 whole entry V624A) above, with Y620F, A624V counted along it
Chitinase A1 Y592L, P20533, sequence (P20533 whole entry Y592L): as the sequence (P20533 whole entry V624A) above, with Y592L, A624V counted along it
Chitinase A1 F622L, P20533, sequence (P20533 whole entry F622L): as the sequence (P20533 whole entry V624A) above, with F622L, A624V counted along it
Chitinase A1 V640A, P20533, sequence (P20533 whole entry V640A): as the sequence (P20533 whole entry V624A) above, with A624V, V640A counted along it
Chitinase A1 S568A, P20533, sequence (P20533 whole entry S568A): as the sequence (P20533 whole entry V624A) above, with S568A, A624V counted along it
Chitinase A1 V594A, P20533, sequence (P20533 whole entry V594A): as the sequence (P20533 whole entry V624A) above, with V594A, A624V counted along it
Chitinase A1 L578A, P20533, sequence (P20533 whole entry L578A): as the sequence (P20533 whole entry V624A) above, with L578A, A624V counted along it

Substance | ddG of mutation (higher = less stable) [kcal/mol] | denaturant m value [kcal/mol/M] | denaturant midpoint (higher = more stable) [M] | unfolding free energy [kcal/mol]
Chitinase A1 Y592L, P20533 | 5.97 | 1.46 | 1.02 | 0.73
Chitinase A1 I576A, P20533 | 3.11 | 1.15 | 3.5 | 3.59
Chitinase A1 L566A, P20533 | 2.52 | 1.19 | 4.01 | 4.18
Chitinase A1 L614A, P20533 | 5.26 | 1.13 | 1.63 | 1.44
Chitinase A1 I611A, P20533 | 3.63 | 1.13 | 3.05 | 3.07
Chitinase A1 V604A, P20533 | 1.58 | 1.1 | 4.83 | 5.12
Chitinase A1 Y620L, P20533 | 4.38 | 1.26 | 2.4 | 2.32
Chitinase A1 S637A, P20533 | 1.42 | 1.13 | 4.97 | 5.28
Chitinase A1 Y620F, P20533 | 1.52 | 1.31 | 4.88 | 5.18
Chitinase A1 V642A, P20533 | 1.44 | 1.15 | 4.95 | 5.26
Chitinase A1 V640A, P20533 | 1.66 | 1.22 | 4.76 | 5.04
Chitinase A1 A626G, P20533 | 1.88 | 1.22 | 4.57 | 4.82
Chitinase A1 V624A, P20533 | 4.07 | 1.19 | 2.67 | 2.63
Chitinase A1 Y592F, P20533 | 1.77 | 1.25 | 4.66 | 4.93
Chitinase A1 A609G, P20533 | 2.33 | 1.18 | 4.18 | 4.37
Chitinase A1 V589A, P20533 | 1.77 | 1.16 | 4.66 | 4.93
Chitinase A1 V594A, P20533 | 4.19 | 1.27 | 2.56 | 2.51
Chitinase A1 S568A, P20533 | -0.1 | 1 | 6.29 | 6.8
Chitinase A1 T602A, P20533 | -1.49 | 0.89 | 7.49 | 8.19
Chitinase A1 N596A, P20533 | 1 | 0.99 | 5.33 | 5.7
Chitinase A1 L578A, P20533 | 5.54 | 1.16 | 1.39 | 1.16
Chitinase A1 F622L, P20533 | 2.5 | 1.08 | 4.03 | 4.2
